# Test results from paper PMC8797792.
# Square brackets hold non-standard residues; d marks the D form. Ends that are not written are not given here. pT = C[C@@H](OP(=O)(O)O)[C@H](N)C(=O)O; pS = N[C@@H](COP(=O)(O)O)C(=O)O
# Target: GST-Fbw7 (residues 263 to 707)-Skp1 complex, Q969H0
# Assay: AlphaScreen or HTRF
binder,measurement,value
"EDIWKKFELLP[pT]PPL[pS]PSRR [Myc T58 degron peptide, diphosphorylated (pT58/pS62)]",IC50,9.8 nM
